Test [1] has as its target T1, GST-SdhA-CBM2 (1029-1260aa) (Legionella pneumophila, UniProt Q6RCQ3 1029-1260). Description: ELISA. (ELISA stands for enzyme-linked immunosorbent assay.)
Test [2] concerns the target T1, GST-SdhA-CBM2 (1029-1260aa). In words: pull-down.

B1: His-tagged ASH/RhoGAP domain of OCRL (536aa-901aa) (domain or fragment)
chain: not shown
For B1, in test [1], the binding result is on record as “binds”.

B2: GFP-tagged, full-length OCRL (natural protein)
chain: not shown
As for B2, in test [2], the “fold pull-down above the GST control” value was around 47 fold.

B3: His-tagged ASH domain of OCRL (536aa-678aa) (domain or fragment)
chain: not shown
Consider B3, for which the binding result in test [1] is reported as “binds”.
